For one data set, the system named is T1, LkGdh1.
T1 construct: gene GDH1; full-length ORF in pET-28a(+), His-tagged, expressed in E. coli BL21, Ni-NTA purified; monomer 54 kD apparent; glutamate IC50: native enzyme in WT extract
Nature of the data set: NADPH absorbance at […] nm, reductive amination. It counts as biochemical, Lachancea kluyveri. As to conditions: 100 mmol/L Tris pH 7.5, 30°C.

Substrate in data set [1]: NC(=O)C1=CN([C@@H]2O[C@H](COP(=O)(O)OP(=O)(O)OC[C@H]3O[C@@H](n4cnc5c(N)ncnc54)[C@H](OP(=O)(O)O)[C@@H]3O)[C@@H](O)[C@H]2O)C=CC1
The experiment in a line: purified protein. It counts as biochemical, Saccharomyces cerevisiae. As to conditions: 8 mmol/L α-KG, 100 mmol/L ammonium chloride, 100 mmol/L Tris pH 7.5, 30°C.

Substrate in data set [2]: O=C(O)CCC(=O)C(=O)O
The experiment in a line: purified protein. It counts as biochemical, Saccharomyces cerevisiae. As to conditions: 250 μmol/L NADPH, 100 mmol/L ammonium chloride, 100 mmol/L Tris pH 7.5, 30°C.

Substrate in data set [3]: N
The experiment in a line: purified protein. As to conditions: 8 mmol/L α-KG, 250 μmol/L NADPH, 100 mmol/L Tris pH 7.5, 30°C.

Like-named read-outs stand apart in the source and are kept apart here.

We go through 5 molecules from article PMC5387307, “Diversification of the kinetic properties of yeast NADP‐glutamate‐dehydrogenase isozymes proceeds independently of their evolutionary origin” (MicrobiologyOpen, 2016).

A word on the kcat: it is the number of substrate molecules converted per active site and unit of time at saturation.

Consider `O=C(O)CCC(=O)C(=O)O` [α-KG], for which the Km with LkGdh1 (250 μmol/L NADPH, 100 mmol/L ammonium chloride, read-out: pH 7.5 / K m-α-KG) was 460 µM.

Take `NC(=O)C1=CN([C@@H]2O[C@H](COP(=O)(O)OP(=O)(O)OC[C@H]3O[C@@H](n4cnc5c(N)ncnc54)[C@H](OP(=O)(O)O)[C@@H]3O)[C@@H](O)[C@H]2O)C=CC1` [NADPH]: the Km in the data set on LkGdh1 (8 mmol/L α-KG, 100 mmol/L ammonium chloride, read-out: pH 7.5 / K m-NADPH) stood at 46 µM.

Consider `N` [NH4+], for which the Km with LkGdh1 (8 mmol/L α-KG, 250 μmol/L NADPH, read-out: pH 7.5 / K m-NH4+) was 7400 µM.

B1: ScGdh1 (Saccharomyces cerevisiae S288C) (protein)
chain: SEPEFQQAYEEVVSSLEDSTLFEQHPEYRKVLPIVSVPERIIQFRVTWENDKGEQEVAQGYRVQYNSAKGPYKGGLRFHPSVNLSILKFLGFEQIFKNSLTGLDMGGGKGGLCVDLKGRSNNEIRRICYAFMRELSRHIGQDTDVPAGDIGVGGREIGYLFGAYRSYKNSWEGVLTGKGLNWGGSLIRPEATGYGLVYYTQAMIDYATNGKESFEGKRVTISGSGNVAQYAALKVIELGGTVVSLSDSKGCIISETGITSEQVADISSAKVNFKSLEQIVNEYSTFSENKVQYIAGARPWTHVQKVDIALPCATQNEVSGEEAKALVAQGVKFIAEGSNMGSTPEAIAVFETARSTATGPSEAVWYGPPKAANLGGVAVSGLEMAQNSQRITWTSERVDQELKRIMINCFNECIDYAKKYTKDGKVLPSLVKGANIASFIKVSDAMFDQGDVF
notes: full-length ORF in pET-28a(+), His-tagged, expressed in E. coli BL21, Ni-NTA purified; monomer 53 kD apparent
In the case of B1, the figures for the Km in “purified protein [1]”, in “purified protein [2]” and in the data set “purified protein [3]” were 45 µM, 370 µM and 8600 µM, respectively. For the same molecule, the kcat in “purified protein [1]”, in the data set “purified protein [2]” and in “purified protein [3]” was 13 s⁻¹ each time.

B2: ScGdh3 (Saccharomyces cerevisiae S288C) (protein)
chain: MTSEPEFQQAYDEIVSSVEDSKIFEKFPQYKKVLPIVSVPERIIQFRVTWENDNGEQEVAQGYRVQFNSAKGPYKGGLRFHPSVNLSILKFLGFEQIFKNALTGLDMGGGKGGLCVDLKGKSDNEIRRICYAFMRELSRHIGKDTDVPAGDIGVGGREIGYLFGAYRSYKNSWEGVLTGKGLNWGGSLIRPEATGFGLVYYTQAMIDYATNGKESFEGKRVTISGSGNVAQYAALKVIELGGIVVSLSDSKGCIISETGITSEQIHDIASAKIRFKSLEEIVDEYSTFSESKMKYVAGARPWTHVSNVDIALPCATQNEVSGDEAKALVASGVKFVAEGANMGSTPEAISVFETARSTATNAKDAVWFGPPKAANLGGVAVSGLEMAQNSQKVTWTAERVDQELKKIMINCFNDCIQAAQEYSTEKNTNTLPSLVKGANIASFVMVADAMLDQGDVF
notes: full-length ORF in pET-28a(+), His-tagged, expressed in E. coli BL21, Ni-NTA purified; monomer 55 kD apparent; glutamate IC50: native enzyme in Scgdh1 deletion strain extract
B2: the values for the Km in the data set “purified protein [1]”, in the data set “purified protein [2]” and in “purified protein [3]” were 42 µM, 400 µM and 6900 µM, respectively. Also, the kcat in the data set “purified protein [1]”, in “purified protein [2]” and in the data set “purified protein [3]” was 14 s⁻¹ each time.
